This is an account of results in article doi:10.1101/2025.03.06.641827 (bioRxiv, 2025).

Series [1] concerns the molecule itself. In words: SEC.
Series [2] concerns the molecule itself. The experiment in a line: crystal structure.
Series [3] concerns the molecule itself. In words: crystal structure. The source holds these as a separate data set.

B1: Staphylococcus aureus threonine dehydratase (IlvA), full length (residues 1-422) (enzyme, UniProt Q2FF63 1-422, looked up)
chain: MTVKTTVSTKDIDEAFLRLKDIVKETPLQLDHYLSQKYDCKVYLKREDLQWVRSFKLRGAYNAISVLSDEAKSKGITCASAGNHAQGVAYTAKKLNLNAVIFMPVTTPLQKVNQVKFFGNSNVEVVLTGDTFDHCLAEALTYTSEHQMNFIDPFNNVHTISGQGTLAKEMLEQAKSDNVNFDYLFAAIGGGGLISGISTYFKTYSPTTKIIGVEPSGASSMYESVVVNNQVVTLPNIDKFVDGASVARVGDITFEIAKENVDDYVQVDEGAVCSTILDMYSKQAIVAEPAGALSVSALENYKDHIKGKTVVCVISGGNNDINRMKEIEERSLLYEEMKHYFILNFPQRPGALREFVNDVLGPQDDITKFEYLKKSSQNTGTVIIGIQLKDHDDLIQLKQRVNHFDPSNIYINENKMLYSLLI
On to B1, for which, in series [1], the “stoichiometry N” value was 8.

B2: Staphylococcus aureus IlvA regulatory domain (residues 336-422) (domain or fragment, UniProt Q2FF63 336-422, looked up)
chain: EMKHYFILNFPQRPGALREFVNDVLGPQDDITKFEYLKKSSQNTGTVIIGIQLKDHDDLIQLKQRVNHFDPSNIYINENKMLYSLLI
Consider B2, for which the “stoichiometry N” value in series [1] amounted to 4.

B3: Escherichia coli IlvA regulatory domain (amino acids 335-514) (domain or fragment, UniProt P04968 335-514, looked up)
chain: EQREALLAVTIPEEKGSFLKFCQLLGGRSVTEFNYRFADAKNACIFVGVRLSRGLEERKEILQMLNDGGYSVVDLSDDEMAKLHVRYMVGGRPSHPLQERLYSFEFPESPGALLRFLNTLGTYWNISLFHYRSHGTDYGRVLAAFELGDHEPDFETRLNELGYDCHDETNNPAFRFFLAG
For B3, the “stoichiometry N” value in series [1] was found to be 2.

B4: Escherichia coli IlvA regulatory domain (335-514) F352A mutant (domain or fragment, UniProt P04968 335-514, looked up)
chain: EQREALLAVTIPEEKGSALKFCQLLGGRSVTEFNYRFADAKNACIFVGVRLSRGLEERKEILQMLNDGGYSVVDLSDDEMAKLHVRYMVGGRPSHPLQERLYSFEFPESPGALLRFLNTLGTYWNISLFHYRSHGTDYGRVLAAFELGDHEPDFETRLNELGYDCHDETNNPAFRFFLAG
For the protein B4, the “stoichiometry N” value in series [2] worked out at 2.

B5: Escherichia coli threonine dehydratase (IlvA), full length, His-tagged (enzyme, UniProt P04968 1-514, looked up)
chain: MADSQPLSGAPEGAEYLRAVLRAPVYEAAQVTPLQKMEKLSSRLDNVILVKREDRQPVHSFKLRGAYAMMAGLTEEQKAHGVITASAGNHAQGVAFSSARLGVKALIVMPTATADIKVDAVRGFGGEVLLHGANFDEAKAKAIELSQQQGFTWVPPFDHPMVIAGQGTLALELLQQDAHLDRVFVPVGGGGLAAGVAVLIKQLMPQIKVIAVEAEDSACLKAALDAGHPVDLPRVGLFAEGVAVKRIGDETFRLCQEYLDDIITVDSDAICAAMKDLFEDVRAVAEPSGALALAGMKKYIALHNIRGERLAHILSGANVNFHGLRYVSERCELGEQREALLAVTIPEEKGSFLKFCQLLGGRSVTEFNYRFADAKNACIFVGVRLSRGLEERKEILQMLNDGGYSVVDLSDDEMAKLHVRYMVGGRPSHPLQERLYSFEFPESPGALLRFLNTLGTYWNISLFHYRSHGTDYGRVLAAFELGDHEPDFETRLNELGYDCHDETNNPAFRFFLAG
modifications: PLP covalently bound to Lys62
Turning to B5, in series [3], the “stoichiometry N” value is 4.
